The supplement of paper PMC12764529
± gives the half width of the 95% confidence interval.

Assay: folding stability dG unfold (combined trypsin and chymotrypsin); higher = more stable
How it was run: (§1)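 Only designs with AlphaFold2 dimer inter-PAE above 15 were retained; each was a mini-protein under 80 residues with no cysteine, in a PA-tagged cDNA display construct. After digestion with trypsin and chymotrypsin and sequencing, K50 was inferred by Bayesian fitting of counts, and unfolding free energy was derived per protease or combined against a sequence-predicted unfolded-state K50 and a shared folded-state K50.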

| Sequence | folding stability dG unfold |
| --- | --- |
| SAGGMKIEFDEKTKRITITLPDGKKVEIELKDGRKVEITFERVDGKLKVVIKHKNEEEALELAKKLLSAGGS [r16_623_TrROS_Hall] | 1.55 ± 0.26 kcal/mol |
| SNPISAVVPSPGGRYVLVVEYKDGSVEVYEFEGLSTAEEAKERALALLKESTEGEPREITRVVVLPAPPGSA [r9_1135_TrMRF] | 4.33 ± 0.11 kcal/mol |
| SAGGSAMKAKEIKRLKLKDRPLVVIFLENPEGGYSVLVIPLENPEKVEELLEELVKEGLLDEITPESAGGSA [r15_575_TrMRF] | 1.59 ± 0.074 kcal/mol |
| SAGGSAPFPIKISTIRYPDGYIRMEIWIPPDAPIKIKFPNGFEMEVEPVPNGYYRITMYFRIPKEDSAGGSA [r15_523_TrROS] | 4.53 ± 0.15 kcal/mol |
| SAGKELTIEIVIERNGELITLTIKAKSEEELLEALKKLLEELGFEVEDIKIEKKDGEVIVTVTIRLPKKSAG [r5_946_TrROS_Hall] | 3.43 ± 0.15 kcal/mol |
| SAGGSAGGSKKKVTINIVLTVKPGETLTLTVEITIDGKKYKVTKTLTYDPKTNKLVLTATVEPSAGGSAGGS [r12_136_TrROS_Hall] | 5.03 ± 0.29 kcal/mol |
| SAGGMVTITVSIEEGKGYAVITITIDDETLTIKIPIPNMTEEDIKAKAEEIAKELAEKYGIEEIKLESAGGS [r16_249_JUSTAS] | 3.34 ± 0.32 kcal/mol |
| SAGGSAGGSPVLLAESVTTLPDGTVVRTRLVRLPDGTYLRETETYPPGGAPARAVERFDDPRLASAGGSAGG [r6_299_JUSTAS] | 3.07 ± 0.059 kcal/mol |
| SMTVTTDPSSLTFTLPPTYTSVEQAREALEELGFKLPSSVKSITIESVDEGKNLNTITVTFDDPEALKKLSA [r9_820_JUSTAS] | 0.913 ± 0.082 kcal/mol |
| SAGGSAGGSAGGSPPNMEPVETQEYQIGNDFIIKVDTYRMPDPDMYFVDIEITPDALKASAGGSAGGSAGGS [r4_163_TrROS] | 1.28 ± 0.3 kcal/mol |
| SAGGMKVTEEPDATIVEVPLPDRKLTLTITRDGPGVTVTVTEDGEVLKTIPTDGPAEEAIAAAIAALSAGGS [r8_276_JUSTAS] | 1.29 ± 0.07 kcal/mol |
| SAGGEKTTLTLTLTLTLPPVTTVTYDPETGELRVETRTTTLTLTITVTADSPEEAERALRELLKKLGLSAGG [r13_35_TrROS_Hall] | > 6 kcal/mol |
| SAGMKPGDMRPVEIPFEIYQYDDGGPKPVAPMTIKIMVNPDEGYVMLEIENPGNGEPVIIFTLPADDISAGG [r19_413_TrROS] | 2.16 ± 0.1 kcal/mol |
| SAGGSAMTIYIKNKDGYIIKIEITKIEEIGPNYIKIKMKMEIINKNGEKKEIELELIFKVKNPEELSAGGSA [r15_1035_TrROS_Hall] | 3.79 ± 0.28 kcal/mol |
| SAGGSAGGSKRKIKVDDVEPPPNGFMRVTLEVDDGKPLVPINIPPGQTPSEVKDQVKDLVEELSAGGSAGGS [r12_798_TrROS] | 3.85 ± 0.49 kcal/mol |
| SASASQTTIEYTVPVPAGTSPDEPLTLTVTLPDKEIPIEVGTLENLPPDATVTITLDTTEPTFTVTLTPSAG [r14_554_JUSTAS] | 0.799 ± 0.096 kcal/mol |
| SAGGIEDIANEFGIEDVEIEEINPEYNEVTVTFRFRGPNGNPFTWTYTIEVPPPPPPEPKMDPEDNNNSAGG [r13_608_TrROS] | 1.81 ± 0.32 kcal/mol |
| SMKPGEVKELTLKLTIPVKPGEITVTLVLKLEDGRYVVVESRATVKEDGTIEIEVKIRVYDPKTNEWKELSA [r9_349_TrROS_Hall] | 2.89 ± 0.35 kcal/mol |
| SAGGSAGGSAGGMLVRIPRGDKGFVLEIETDGVRTVEEFDGTEEEIREYAEKNGFEILESAGGSAGGSAGGS [r10_506_JUSTAS] | 0.892 ± 0.071 kcal/mol |
| SAGGSAGGSPNDMKEVDFPIKFPKEKFKVKIWRHPDDPNRYYIRFPSNGAIFWFDPNGDIEPLSAGGSAGGS [r12_580_TrROS] | 1.49 ± 0.1 kcal/mol |
| MSEKTFVVEVKVESPEEAEELIEKLKEKLSGEKYEVKIEKVEVSPDGTVKVHITFKPGVPEEFIKKALEEES [r1_485_TrMRF] | 2.7 ± 0.11 kcal/mol |

Assay: folding stability dG unfold from chymotrypsin proteolysis; higher = more stable
How it was run: as §1

| Sequence | folding stability dG unfold |
| --- | --- |
| SAGGEIKIKKSKDGKTLYIEIKIKAGEKVKLKLTITLPNGKKAEITSVEIIEKNGELYIKVEIKIKDSAGGS [r16_499_TrROS_Hall] | 4.67 ± 0.4 kcal/mol |
| SAGGKEWYIKVSIEHRNPNNGEKRELSITIPVEGMSAEEALDIARELARHLPPENVKIEVDIVPLDDSAGGS [r16_774_TrROS] | 2.08 ± 0.032 kcal/mol |
| SAGGSAGGSAGMKEGEKPKVKIEIDVLIEVDGKLYRVRAEAEINEDGEITIKVEIEELPDSAGGSAGGSAGG [r11_551_TrROS_Hall] | 3.65 ± 0.11 kcal/mol |
| SAEEELRKALENMSDEELEALLRAAAPPPKTVTIRLSEEELEKLAQELADEYNVTVTVEVDGKTLTLTLSAG [r14_7_TrROS_Hall] | 1.74 ± 0.051 kcal/mol |
| SAGGSAGGSIEIPGGYTIPSSLSEEEAKEAAKKLFLEKNPELGVKEVEVKVETKNGKKTITVVKSAGGSAGG [r6_558_JUSTAS] | 0.857 ± 0.14 kcal/mol |
| SAGGSAGGSKPVLKITVTNEKGEKQTISLDELQAETGLSAEEIAARLAALLPPGAKITIEPVPSAGGSAGGS [r12_399_TrROS_Hall] | 2.11 ± 0.023 kcal/mol |
| SKDPNNEWVVIKFEVTIPVPPGQKPITADEIASQVRQIMQNHGMEITSVEVEYRGNQVTVSVEIVIPKKASA [r9_1134_TrROS] | 3.32 ± 0.11 kcal/mol |
| SEKVKKELNEAGYPVKDIKFVPEKGYAYITVEVYVPEVDKKVEKEIVIPFPDSATPEQLTEAARKALEADSA [r9_184_TrMRF] | 3.04 ± 0.076 kcal/mol |
| SAGGSAGGSAGKKITIPNLDVMRNPDDGMAFIQFGGQMIMIPPNVKIEQDPNGWMEIELPSAGGSAGGSAGG [r17_34_TrROS] | -0.845 ± 0.69 kcal/mol |
| SAGGSAGGSAGMPVKVVLVKWKGGGLEPEGGEEREVEIGPEELEKLVKEAEKEGYEVYPASAGGSAGGSAGG [r17_18_TrMRF] | -0.126 ± 0.35 kcal/mol |
| SKKVTIMIMIRRRDPEDGKYRPIPPEFILEMVRRARKKGKKVKITFMNPDNPWAKRLAKRAKEEGIKIEWSA [r9_468_TrROS] | 2.1 ± 0.14 kcal/mol |
| SAGGSAGGSAGGPANLNDEPVLLIPVSSELLKLIPAEKLVELAAKLASPNVKRIYVLAPESAGGSAGGSAGG [r7_487_TrMRF] | 0.58 ± 0.13 kcal/mol |
| SAGGEKTYMVRIDIEYRTPGKPREIDLMVPIKSPEQAREQLDKIADFLAKEHPDNWRIKVEIYPMEDSAGGS [r16_475_TrROS] | 2.49 ± 0.068 kcal/mol |
| SAGGSAGGSSLTLRLRLRLRVRVLDEETGELSEFEVEVELELRFEPAPPPPPPPLVLRDGKLVSAGGSAGGS [r12_140_TrROS_Hall] | 4.53 ± 0.18 kcal/mol |
| SAGGMVTLTYTDLVEEDPEVKAAKARELAEELREKGYTVTDATFDPEAGTLTITVSADDATLEEIAASAGGS [r8_344_TrMRF] | 1.1 ± 0.065 kcal/mol |
| SAGPLTVTVEGDTLTVTVPLTDVPADATVRVTVTVGDKTEEYTVPPSESITVTVPSSAVEVTVERLPPASAG [r5_867_JUSTAS] | 2.44 ± 0.082 kcal/mol |
| SMQINVERNPENGTVIIHIPMEDMPPENIREILKDLPPNNKRVTIHMHDPPYMRWLKELAKEKGFPIKITSA [r9_919_TrROS] | 0.453 ± 0.21 kcal/mol |
| SAGGSKTVELEIEIDGKLIKIRVEENENGELTVRIEIYDKNGKKVKEIEIKVKSLEEALKALEKLLSAGGSA [r2_82_TrROS_Hall] | 3.22 ± 0.12 kcal/mol |
| SAGGVLPSDPVTVTVTIPVPAANAETDGRLPPQPQTINLEIGGPSEEAIRALLEALFPPGTEYEILLSAGGS [r16_282_JUSTAS] | 0.691 ± 0.034 kcal/mol |
| SAGGSAMKIEEIEKVELKKNENGELTAKIIIKDKKTNKYIEIEITVKPGMTLEEIKKLAEELLKKLSAGGSA [r15_181_TrROS_Hall] | 1.96 ± 0.075 kcal/mol |
| SAGGMKVDPKTNITTIEFPSSNLPELKEAIEKTGEKPVVVILKDPNSDREVRITLTKEEALKYLEKKSAGGS [r16_797_JUSTAS] | 0.71 ± 0.1 kcal/mol |

| Sequence | folding stability dG unfold |
| --- | --- |
| SAGGMKIEFDEKTKRITITLPDGKKVEIELKDGRKVEITFERVDGKLKVVIKHKNEEEALELAKKLLSAGGS [r16_623_TrROS_Hall] | 1.34 ± 0.082 kcal/mol |
| SNPISAVVPSPGGRYVLVVEYKDGSVEVYEFEGLSTAEEAKERALALLKESTEGEPREITRVVVLPAPPGSA [r9_1135_TrMRF] | 4.3 ± 0.051 kcal/mol |
| SAGGSAMKAKEIKRLKLKDRPLVVIFLENPEGGYSVLVIPLENPEKVEELLEELVKEGLLDEITPESAGGSA [r15_575_TrMRF] | 1.93 ± 0.082 kcal/mol |
| SAGGSAPFPIKISTIRYPDGYIRMEIWIPPDAPIKIKFPNGFEMEVEPVPNGYYRITMYFRIPKEDSAGGSA [r15_523_TrROS] | 4.79 ± 0.11 kcal/mol |
| SAGKELTIEIVIERNGELITLTIKAKSEEELLEALKKLLEELGFEVEDIKIEKKDGEVIVTVTIRLPKKSAG [r5_946_TrROS_Hall] | 3.83 ± 0.081 kcal/mol |
| SAGGSAGGSKKKVTINIVLTVKPGETLTLTVEITIDGKKYKVTKTLTYDPKTNKLVLTATVEPSAGGSAGGS [r12_136_TrROS_Hall] | 5.03 ± 0.24 kcal/mol |
| SAGGMVTITVSIEEGKGYAVITITIDDETLTIKIPIPNMTEEDIKAKAEEIAKELAEKYGIEEIKLESAGGS [r16_249_JUSTAS] | 3.37 ± 0.13 kcal/mol |
| SAGGSAGGSPVLLAESVTTLPDGTVVRTRLVRLPDGTYLRETETYPPGGAPARAVERFDDPRLASAGGSAGG [r6_299_JUSTAS] | 3.505 ± 0.023 kcal/mol |
| SMTVTTDPSSLTFTLPPTYTSVEQAREALEELGFKLPSSVKSITIESVDEGKNLNTITVTFDDPEALKKLSA [r9_820_JUSTAS] | 0.922 ± 0.089 kcal/mol |
| SAGGSAGGSAGGSPPNMEPVETQEYQIGNDFIIKVDTYRMPDPDMYFVDIEITPDALKASAGGSAGGSAGGS [r4_163_TrROS] | 1.82 ± 0.17 kcal/mol |
| SAGGMKVTEEPDATIVEVPLPDRKLTLTITRDGPGVTVTVTEDGEVLKTIPTDGPAEEAIAAAIAALSAGGS [r8_276_JUSTAS] | 1.43 ± 0.059 kcal/mol |
| SAGGEKTTLTLTLTLTLPPVTTVTYDPETGELRVETRTTTLTLTITVTADSPEEAERALRELLKKLGLSAGG [r13_35_TrROS_Hall] | 6.41 ± 0.27 kcal/mol |
| SAGMKPGDMRPVEIPFEIYQYDDGGPKPVAPMTIKIMVNPDEGYVMLEIENPGNGEPVIIFTLPADDISAGG [r19_413_TrROS] | 2.42 ± 0.057 kcal/mol |
| SAGGSAMTIYIKNKDGYIIKIEITKIEEIGPNYIKIKMKMEIINKNGEKKEIELELIFKVKNPEELSAGGSA [r15_1035_TrROS_Hall] | 4 ± 0.099 kcal/mol |
| SAGGSAGGSKRKIKVDDVEPPPNGFMRVTLEVDDGKPLVPINIPPGQTPSEVKDQVKDLVEELSAGGSAGGS [r12_798_TrROS] | 3.74 ± 0.41 kcal/mol |
| SASASQTTIEYTVPVPAGTSPDEPLTLTVTLPDKEIPIEVGTLENLPPDATVTITLDTTEPTFTVTLTPSAG [r14_554_JUSTAS] | -0.451 ± 0.23 kcal/mol |
| SAGGIEDIANEFGIEDVEIEEINPEYNEVTVTFRFRGPNGNPFTWTYTIEVPPPPPPEPKMDPEDNNNSAGG [r13_608_TrROS] | 2.44 ± 0.16 kcal/mol |
| SMKPGEVKELTLKLTIPVKPGEITVTLVLKLEDGRYVVVESRATVKEDGTIEIEVKIRVYDPKTNEWKELSA [r9_349_TrROS_Hall] | 3.28 ± 0.18 kcal/mol |
| SAGGSAGGSAGGMLVRIPRGDKGFVLEIETDGVRTVEEFDGTEEEIREYAEKNGFEILESAGGSAGGSAGGS [r10_506_JUSTAS] | 0.883 ± 0.051 kcal/mol |
| SAGGSAGGSPNDMKEVDFPIKFPKEKFKVKIWRHPDDPNRYYIRFPSNGAIFWFDPNGDIEPLSAGGSAGGS [r12_580_TrROS] | 1.75 ± 0.085 kcal/mol |
| MSEKTFVVEVKVESPEEAEELIEKLKEKLSGEKYEVKIEKVEVSPDGTVKVHITFKPGVPEEFIKKALEEES [r1_485_TrMRF] | 2.97 ± 0.086 kcal/mol |
